{"source": "the supplement of paper PMC10126150", "note": "± gives the standard deviation of the averaged measurements.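 Note: ATP exposure 15 min at 22 °C before imaging.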", "data": [{"test_system": "ATP", "experiment": "switch fluorescence ratio, 500 uM ATP over buffer (Cy3 cluster intensity, sum of 5 cycles each) (fold (ratio)); higher = stronger signal-on switching upon ATP binding; sequences stand for … in TCGTCGGCAGCGTCAGATGTGTATAAGAGACAGTTTTTTTTTTTTTTTTTTTTTTTTT…TC", "conditions": "aptamer strand: ATP DNA aptamer (quencher-CACCTGGGGGAGTATTGCGGAGGAAGG + anchor), 100 nM annealed; ATP concentration: 500 uM", "in_short": "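The quencher-labelled ATP aptamer, at 100 nM, was annealed to Cy3-labelled switching-strand clusters on a modified Illumina MiSeq flow-cell. The clusters were imaged in selection buffer, then after 15 min with 500 uM ATP at 22 °C, and this buffer/ATP cycle ran five times with NaOH stripping and re-annealing between runs. Per-cluster fluorescence ratios, summed target-cycle over summed buffer-cycle Cy3 intensity, were averaged per switch-domain sequence. Clusters outside 100-1000 RFU were excluded.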", "values": [{"sequence": "TTCAGGCGGT", "switch fluorescence ratio": "0.992 ± 0.025"}, {"sequence": "TTCAGGGGTG", "switch fluorescence ratio": "1.1 ± 0.033"}, {"sequence": "TTCAGGGTAC", "switch fluorescence ratio": "0.987 ± 0.039"}, {"sequence": "TTCAGTAAGA", "switch fluorescence ratio": "1 ± 0.04"}, {"sequence": "TTCAGTAGAT", "switch fluorescence ratio": "0.951 ± 0.032"}, {"sequence": "TTCAGTATTT", "switch fluorescence ratio": "1.08 ± 0.09"}, {"sequence": "TTCAGTGGGG", "switch fluorescence ratio": "0.991 ± 0.039"}, {"sequence": "TTCAGTGGGT", "switch fluorescence ratio": "0.9787 ± 0.009"}, {"sequence": "TTCAGTTTTT", "switch fluorescence ratio": "1 ± 0.026"}, {"sequence": "TTCATAACTT", "switch fluorescence ratio": "0.99 ± 0.018"}, {"sequence": "TTCATAATA", "switch fluorescence ratio": "1.024 ± 0.0029"}, {"sequence": "TTCATAGGCT", "switch fluorescence ratio": "1.03 ± 0.025"}, {"sequence": "TTCATATGTT", "switch fluorescence ratio": "0.981 ± 0.012"}, {"sequence": "TTCATCATAG", "switch fluorescence ratio": "1.05 ± 0.029"}, {"sequence": "TTCATCATGT", "switch fluorescence ratio": "1.02 ± 0.023"}, {"sequence": "TTCATCGGGA", "switch fluorescence ratio": "0.981 ± 0.055"}, {"sequence": "TTCATCGTTT", "switch fluorescence ratio": "0.968 ± 0.011"}, {"sequence": "TTCATCTGTT", "switch fluorescence ratio": "0.9711 ± 0.0084"}, {"sequence": "TTCATGCATC", "switch fluorescence ratio": "1.83 ± 1.2"}, {"sequence": "TTCATGCTTT", "switch fluorescence ratio": "0.9882 ± 0.0097"}, {"sequence": "TTCATGGGT", "switch fluorescence ratio": "1.017 ± 0.0054"}, {"sequence": "TTCATGTGTG", "switch fluorescence ratio": "1 ± 0.081"}, {"sequence": "TTCATGTTGT", "switch fluorescence ratio": "0.984 ± 0.027"}, {"sequence": "TTCATTGGTA", "switch fluorescence ratio": "1.0186 ± 0.00056"}, {"sequence": "TTCATTTCGT", "switch fluorescence ratio": "1 ± 0.024"}, {"sequence": "TTCATTTTGG", "switch fluorescence ratio": "1.05 ± 0.07"}, {"sequence": "TTCATTTTTG", "switch fluorescence ratio": "0.998 ± 0.044"}, {"sequence": "TTCCAATGTG", "switch fluorescence ratio": "1.01 ± 0.029"}, {"sequence": "TTCCAATTTT", "switch fluorescence ratio": "1.03 ± 0.027"}, {"sequence": "TTCCACAGGA", "switch fluorescence ratio": "1.15 ± 0.15"}, {"sequence": "TTCCACGAAG", "switch fluorescence ratio": "0.996 ± 0.012"}, {"sequence": "TTCCAGTAGT", "switch fluorescence ratio": "1.01 ± 0.03"}, {"sequence": "TTCCATGGGA", "switch fluorescence ratio": "0.9894 ± 0.0098"}, {"sequence": "TTCCATTTTG", "switch fluorescence ratio": "0.992 ± 0.032"}, {"sequence": "TTCCCCATGG", "switch fluorescence ratio": "1.43 ± 0.6"}, {"sequence": "TTCCCCGGTG", "switch fluorescence ratio": "1.21 ± 0.24"}, {"sequence": "TTCCCGATGT", "switch fluorescence ratio": "1.02 ± 0.0059"}, {"sequence": "TTCCCGGCTG", "switch fluorescence ratio": "1.03 ± 0.016"}, {"sequence": "TTCCCGTGCT", "switch fluorescence ratio": "1.022 ± 0.0076"}, {"sequence": "TTCCGAGGG", "switch fluorescence ratio": "1.102 ± 0.011"}, {"sequence": "TTCCGCGCAG", "switch fluorescence ratio": "1.18 ± 0.016"}, {"sequence": "TTCCGGCTAT", "switch fluorescence ratio": "1.15 ± 0.064"}, {"sequence": "TTCCGGGTG", "switch fluorescence ratio": "3.14 ± 0.75"}, {"sequence": "TTCCGGGTGA", "switch fluorescence ratio": "1.23 ± 0.31"}, {"sequence": "TTCCGGGTTG", "switch fluorescence ratio": "1.34 ± 0.35"}, {"sequence": "TTCCGTCTAT", "switch fluorescence ratio": "1.08 ± 0.086"}, {"sequence": "TTCCGTTGCG", "switch fluorescence ratio": "1.16 ± 0.2"}, {"sequence": "TTCCGTTTGA", "switch fluorescence ratio": "1.24 ± 0.42"}, {"sequence": "TTCCTAAAGT", "switch fluorescence ratio": "0.9622 ± 0.0039"}, {"sequence": "TTCCTATCGT", "switch fluorescence ratio": "1.046 ± 0.0022"}, {"sequence": "TTCCTATTGA", "switch fluorescence ratio": "0.99 ± 0.049"}, {"sequence": "TTCCTATTTT", "switch fluorescence ratio": "1 ± 0.029"}, {"sequence": "TTCCTCCCCC", "switch fluorescence ratio": "1.94 ± 0.68"}, {"sequence": "TTCCTCCCGT", "switch fluorescence ratio": "2.01 ± 0.95"}, {"sequence": "TTCCTGGCAT", "switch fluorescence ratio": "1.45 ± 0.42"}, {"sequence": "TTCCTGGCCT", "switch fluorescence ratio": "1.02 ± 0.033"}, {"sequence": "TTCCTGTGAT", "switch fluorescence ratio": "1.22 ± 0.27"}, {"sequence": "TTCCTGTGGG", "switch fluorescence ratio": "1.02 ± 0.061"}, {"sequence": "TTCCTTGGTG", "switch fluorescence ratio": "1.94 ± 0.89"}, {"sequence": "TTCCTTGGTT", "switch fluorescence ratio": "1.01 ± 0.012"}, {"sequence": "TTCCTTTAAA", "switch fluorescence ratio": "1.07 ± 0.065"}, {"sequence": "TTCGAACGGG", "switch fluorescence ratio": "1.01 ± 0.016"}, {"sequence": "TTCGACTCCT", "switch fluorescence ratio": "1.09 ± 0.087"}, {"sequence": "TTCGAGCTTC", "switch fluorescence ratio": "1.07 ± 0.034"}, {"sequence": "TTCGAGGAAT", "switch fluorescence ratio": "1.08 ± 0.099"}, {"sequence": "TTCGAGGGTA", "switch fluorescence ratio": "0.974 ± 0.036"}, {"sequence": "TTCGAGTAGT", "switch fluorescence ratio": "0.998 ± 0.03"}, {"sequence": "TTCGAGTCCG", "switch fluorescence ratio": "1.03 ± 0.06"}, {"sequence": "TTCGAGTGTC", "switch fluorescence ratio": "1.05 ± 0.034"}, {"sequence": "TTCGAGTTTG", "switch fluorescence ratio": "0.9843 ± 0.0032"}, {"sequence": "TTCGATAGTT", "switch fluorescence ratio": "1.89 ± 1.2"}, {"sequence": "TTCGATTTAT", "switch fluorescence ratio": "1.03 ± 0.024"}, {"sequence": "TTCGCACCGG", "switch fluorescence ratio": "1.021 ± 0.0073"}, {"sequence": "TTCGCAGGGT", "switch fluorescence ratio": "1.039 ± 0.0029"}, {"sequence": "TTCGCAGGTT", "switch fluorescence ratio": "1.05 ± 0.075"}, {"sequence": "TTCGCATAAT", "switch fluorescence ratio": "1.62 ± 0.3"}, {"sequence": "TTCGCATCTA", "switch fluorescence ratio": "1.15 ± 0.056"}, {"sequence": "TTCGCGAAAT", "switch fluorescence ratio": "1.027 ± 0.01"}, {"sequence": "TTCGCGGGGG", "switch fluorescence ratio": "0.979 ± 0.011"}, {"sequence": "TTCGCGGTTA", "switch fluorescence ratio": "1 ± 0.03"}, {"sequence": "TTCGCTAGTG", "switch fluorescence ratio": "0.98 ± 0.033"}, {"sequence": "TTCGCTTAGG", "switch fluorescence ratio": "0.993 ± 0.026"}, {"sequence": "TTCGGAAAGA", "switch fluorescence ratio": "1.013 ± 0.0082"}, {"sequence": "TTCGGAATTA", "switch fluorescence ratio": "0.995 ± 0.0066"}, {"sequence": "TTCGGACTTC", "switch fluorescence ratio": "0.976 ± 0.064"}, {"sequence": "TTCGGAGTT", "switch fluorescence ratio": "1.04 ± 0.017"}, {"sequence": "TTCGGAGTTT", "switch fluorescence ratio": "1.01 ± 0.12"}, {"sequence": "TTCGGCAATG", "switch fluorescence ratio": "1.39 ± 0.38"}, {"sequence": "TTCGGCAGTA", "switch fluorescence ratio": "1 ± 0.025"}, {"sequence": "TTCGGCGAGA", "switch fluorescence ratio": "0.989 ± 0.021"}, {"sequence": "TTCGGCGGCA", "switch fluorescence ratio": "1.02 ± 0.036"}, {"sequence": "TTCGGCGGTA", "switch fluorescence ratio": "0.995 ± 0.011"}, {"sequence": "TTCGGGAGGA", "switch fluorescence ratio": "0.971 ± 0.038"}, {"sequence": "TTCGGGCTAG", "switch fluorescence ratio": "1.013 ± 0.0052"}, {"sequence": "TTCGGGGAGG", "switch fluorescence ratio": "1.02 ± 0.019"}, {"sequence": "TTCGGGGATT", "switch fluorescence ratio": "1.37 ± 0.58"}, {"sequence": "TTCGGGGGAC", "switch fluorescence ratio": "1.13 ± 0.14"}, {"sequence": "TTCGGGGGTT", "switch fluorescence ratio": "1.01 ± 0.051"}, {"sequence": "TTCGGGGTGC", "switch fluorescence ratio": "2.17 ± 1.6"}, {"sequence": "TTCGGGGTGT", "switch fluorescence ratio": "1.01 ± 0.044"}]}]}
